Assay results published in patent publication EP3922993A1.

Biological target: T1, Recombinant GST-tagged hDPP3 (human) (UniProt Q9NY33)
T1 sequence: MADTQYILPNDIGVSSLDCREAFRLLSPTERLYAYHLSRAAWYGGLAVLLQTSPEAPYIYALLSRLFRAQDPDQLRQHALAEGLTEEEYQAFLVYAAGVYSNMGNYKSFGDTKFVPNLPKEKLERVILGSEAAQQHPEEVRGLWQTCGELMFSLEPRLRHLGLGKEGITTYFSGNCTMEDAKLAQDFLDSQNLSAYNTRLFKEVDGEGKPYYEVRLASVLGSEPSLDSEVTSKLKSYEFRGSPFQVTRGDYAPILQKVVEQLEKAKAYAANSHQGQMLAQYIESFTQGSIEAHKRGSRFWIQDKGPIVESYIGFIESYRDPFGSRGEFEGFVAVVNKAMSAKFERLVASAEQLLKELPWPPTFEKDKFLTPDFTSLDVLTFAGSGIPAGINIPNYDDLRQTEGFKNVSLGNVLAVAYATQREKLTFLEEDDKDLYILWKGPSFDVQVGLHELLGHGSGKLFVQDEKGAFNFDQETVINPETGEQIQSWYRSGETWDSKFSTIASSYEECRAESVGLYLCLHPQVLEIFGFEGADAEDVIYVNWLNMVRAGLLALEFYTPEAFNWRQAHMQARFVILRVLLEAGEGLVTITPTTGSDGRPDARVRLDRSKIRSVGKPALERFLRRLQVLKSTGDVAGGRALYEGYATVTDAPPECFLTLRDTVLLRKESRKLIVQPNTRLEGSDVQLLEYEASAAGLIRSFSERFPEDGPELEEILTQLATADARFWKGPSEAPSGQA
Experiment: cell-based or functional assay

Max inhibition of hDPP3: 25%
B1: anti-DPP3 antibody clone 2555 (antibody, from another filing, V domains shown)
VH: EVQLQQSGPELVKPGASVKISCKASGYSFTGYYIHWVKQSPENSLEWIGEINPSTGGTNYNQKFKGKATLTVDKSSSTAYMQLKSLTSEESAVYYCTRSYYGIYSWFAYWGQGTLVTVSA
VL: DIKMTQSPSSMYASLGERVTITCKASQDIKSYLSWYQQKPWKSPKTLIYYATSLADGVPSRFSGSGSGQDYSLTISSLESDDTATYYCLQHGESPRTFGGGTKLEIK
